We go through seven molecules from US20250115677A1, “Anti-CEA Antibody Drug Conjugates and Methods of Use” (BeiGene Switzerland GmbH, priority 2022, published 2025).

In assay [1] the test system is MKN45 cells. Briefly: Payload sensitivity of MKN45 cells. It is filed as cell-based, human. The procedure:
At Day 0, cells were harvested with 0.25% trypsin-EDTA, plated at 5,000 cells/well in 96-well plates (655090, Greiner), and incubated at 37° C., 5% CO2 overnight. At Day 1, payload compounds were added (5× dilution) into plates. Cell and compound mixtures were incubated at 37° C., 5% CO2 for 6 days. Survival cell signaling was collected at Day 6 with 100 μL of detection reagent (G7573, Promega®); signal was read by Tecan Spark®. Data were analyzed by GraphPad Prism 9.0.0. All killing concentrations were duplicated or triplicated (Table 21 and FIG. 16). “SABC” refers to specific antibody binding capacity.

Assay [2] concerns the target T1, huCEA surface protein (LOVO cells) (Homo sapiens, UniProt P06731).
T1 construct: host or cells: LOVO
T1 sequence (P06731 35-676): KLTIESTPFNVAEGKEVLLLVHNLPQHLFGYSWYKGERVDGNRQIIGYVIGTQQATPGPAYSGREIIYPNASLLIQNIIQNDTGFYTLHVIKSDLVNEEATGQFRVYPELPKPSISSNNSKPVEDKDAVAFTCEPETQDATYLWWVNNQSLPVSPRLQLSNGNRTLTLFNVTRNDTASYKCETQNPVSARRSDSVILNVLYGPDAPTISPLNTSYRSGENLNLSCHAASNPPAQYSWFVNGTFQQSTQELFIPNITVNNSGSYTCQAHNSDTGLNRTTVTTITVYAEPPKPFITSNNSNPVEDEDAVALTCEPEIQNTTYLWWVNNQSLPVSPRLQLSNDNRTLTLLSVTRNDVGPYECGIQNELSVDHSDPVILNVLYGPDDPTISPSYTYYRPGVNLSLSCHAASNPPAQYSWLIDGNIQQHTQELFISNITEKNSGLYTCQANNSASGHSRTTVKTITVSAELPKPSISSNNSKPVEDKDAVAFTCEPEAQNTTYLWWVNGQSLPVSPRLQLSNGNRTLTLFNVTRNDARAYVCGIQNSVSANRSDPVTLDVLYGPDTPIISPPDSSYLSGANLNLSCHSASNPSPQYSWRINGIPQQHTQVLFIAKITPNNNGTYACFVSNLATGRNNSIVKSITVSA
Briefly: Flow cytometry binding of affinity matured humanized BGA7592 variants to LOVO cells. The procedure: (§1) Affinity comparison of BGA7592-1F (BGA5366) and other affinity matured clones was made by SPR assay (Table 9) using BIAcore™ T-200 (GE Life Sciences) and flow cytometry (FIG. 7). For this experiment, anti-human IgG (Fc) antibody was immobilized on an activated CM5 biosensor chip (Cat. No. BR100839, GE Life Sciences). Anti-CEA antibodies were flowed over the chip surface and captured by anti-human Fab antibody. Then a serial dilution (1.37 nM to 333 nM) of CHIM was flowed over the chip surface and changes in surface plasmon resonance signals were analyzed to calculate the association rates (kon) and dissociation rates (koff) by using the one-to-one Langmuir binding model (BIA Evaluation Software, GE Life Sciences). For flow cytometry, CEA-expressing cells (10′ cells/well) were incubated with various concentrations of purified affinity-matured antibodies, followed by binding with Alexa Fluro-647-labeled anti-hu IgG Fc antibody (Cat. No. 409320, BioLegend, USA). Cell fluorescence was quantified using a flow cytometer (Guava easyCyte™ 8HT, Merck-Millipore, USA). The equilibrium dissociation constant (KD) was calculated as the ratio koff/kon.
A general note: A flow cytometer gives signals particle by particle.

The target in assay [3] is T2, CHIM (Homo sapiens, UniProt P06731, A174T/A211G/A239V/A261S/A267P/C12H/D173N/E253A/E283V/F203L/F272R/F277P/F63I/H123Q/H61N/H9C/I100T/I112V/I113T/I13V/I230T/I80V/INS244IISP/K155N/K214E/L18V/L245P/L62R/N182G/N204S/N246D/N288K/P266S/P287A/Q16K/Q78L/R139H/R17E/R198M/R224N/R250L/R77S/S228P/S280H/T171V/T206K/T210A/T217I/T247S/T276I/V221A/V273I/V291P/V55A/W11L).
T2 construct: CEACAM6 N-terminal part (fusion partner); 6xHis (C); made in house; host or cells: HEK293-based mammalian cell expression system
T2 sequence (P06731 with tags, fused parts or gaps H9C/W11L/C12H/I13V/Q16K/R17E/L18V/V55A/H61N/L62R/F63I/R77S/Q78L/I80V/I100T/I112V/I113T/H123Q/R139H/K155N/T171V/D173N/A174T/N182G/R198M/F203L/N204S/T206K/T210A/A211G/K214E/T217I/V221A/R224N/S228P/I230T/A239V/INS244IISP/L245P/N246D/T247S/R250L/E253A/A261S/P266S/A267P/F272R/V273I/T276I/F277P/S280H/E283V/P287A/N288K/V291P): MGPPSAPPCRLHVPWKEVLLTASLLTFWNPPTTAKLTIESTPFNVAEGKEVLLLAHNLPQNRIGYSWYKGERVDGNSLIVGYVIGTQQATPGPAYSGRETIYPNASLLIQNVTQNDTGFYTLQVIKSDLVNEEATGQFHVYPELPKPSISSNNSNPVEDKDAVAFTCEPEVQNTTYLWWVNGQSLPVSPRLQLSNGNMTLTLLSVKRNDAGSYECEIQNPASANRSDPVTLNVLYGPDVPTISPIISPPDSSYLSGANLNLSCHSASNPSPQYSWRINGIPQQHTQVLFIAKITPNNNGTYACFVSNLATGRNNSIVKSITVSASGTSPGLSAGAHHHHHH
Briefly: SPR affinity comparison of affinity matured humanized BGA7592 variants on CHIM. It is filed as binding. As to conditions: Table 9, SPR on CHIM. The procedure:
as §1

In assay [4] the target is T2, CHIM. The description is as above. It is filed as binding. The conditions noted are these: Table 11, SPR to CHIM.
The target of assay [5] is T3, CEA (Homo sapiens, UniProt P06731).
T3 construct: 6xHis (C)
T3 sequence (P06731 with tags, fused parts or gaps limits assumed): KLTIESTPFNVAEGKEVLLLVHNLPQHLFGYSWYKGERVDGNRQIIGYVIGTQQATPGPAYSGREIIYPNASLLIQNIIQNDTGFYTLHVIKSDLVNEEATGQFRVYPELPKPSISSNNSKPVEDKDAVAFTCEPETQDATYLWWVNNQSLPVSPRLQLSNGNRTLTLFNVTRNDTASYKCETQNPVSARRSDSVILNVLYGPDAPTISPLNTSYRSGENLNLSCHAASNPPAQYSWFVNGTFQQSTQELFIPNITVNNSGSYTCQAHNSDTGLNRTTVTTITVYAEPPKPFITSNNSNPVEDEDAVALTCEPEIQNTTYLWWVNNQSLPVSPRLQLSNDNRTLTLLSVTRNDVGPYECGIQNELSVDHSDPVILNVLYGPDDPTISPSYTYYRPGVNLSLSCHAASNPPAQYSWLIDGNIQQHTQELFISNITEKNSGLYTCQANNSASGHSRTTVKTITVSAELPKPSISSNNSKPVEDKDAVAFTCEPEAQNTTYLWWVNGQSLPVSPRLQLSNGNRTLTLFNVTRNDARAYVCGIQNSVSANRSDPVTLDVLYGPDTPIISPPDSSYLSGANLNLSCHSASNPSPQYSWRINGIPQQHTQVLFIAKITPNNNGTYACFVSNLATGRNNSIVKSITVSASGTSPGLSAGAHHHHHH
In words: SPR affinity measurement of BGA6710 variants. Format: binding. As to conditions: BGA6710 variants in IgG format. An excerpt: To further improve the biochemical/biophysical properties, optimization of BGA6710 was made by introducing substitutions in CDR and framework regions (Table 13). The large, hydrophobic residues were chosen and changed to polar residues, except for K13 and Q53, which are selected based on observed differences among human VH germlines. The considerations include amino acid compositions, heat stability (Tm), surface hydrophobicity and isoelectronic points (pIs) while maintaining functional activities. The variants were expressed in Fab format by cloning into the vector pCANTAB-5E as described in Example 6. The Fab-containing supernatants were then screened by ELISA and SPR analysis for CEA binding.
Thus, the BGA6710 variants in IgG format with single identified mutation or combinations were expressed and purified as described in Example 8.

Changes are numbered by the printed parent chain. In names and notes the source's numbering stands. Where two headings read alike, the source gives them in different places.

In general, EC50 refers to the concentration needed to bring the measured effect to its halfway point. On to `CC[C@@]1(O)C(=O)OCc2c1cc1n(c2=O)Cc2c-1nc1cc(F)c(C)c3c1c2[C@@H](NC(=O)C(C)(C)CO)CC3` [P3, N-((1S,9S)-9-ethyl-5-fluoro-9-hydroxy-4-methyl-10,13-dioxo-2,3,9,10,13,15-hexahydro-1H,12H-benz′[d′]pyrano[3′,4′:6,7]indolizino[1,2-b]quinolin-1-yl)-3-hydroxy-2,2-dimethylpropanamide], for which the EC50 in assay [1] (Homo sapiens, MKN-45, MKN45, 6 days, read-out: EC50) came to 0.89 nM. In assay [1] (Homo sapiens, MKN-45, MKN45, 6 days, read-out: Emax), the Emax is 97%.
On to `COc1cc2cc(c1Cl)N(C)C(=O)C[C@H](OC(=O)[C@H](C)N(C)C(=O)CCC(C)(C)S)[C@]1(C)O[C@H]1[C@H](C)[C@@H]1C[C@@](O)(NC(=O)O1)[C@H](OC)/C=C/C=C(\C)C2` [P1, DM4], for which the Emax in assay [1] (MKN45, 6 days) is 97.6. Moreover, the EC50 in assay [1] (MKN45, 6 days, read-out: EC50) was determined as 1.16 nM.
As to `CC[C@@]1(O)C(=O)OCc2c1cc1n(c2=O)Cc2c-1nc1cc(F)c(C)c3c1c2[C@@H](NC(=O)CO)CC3` [P2, DXD], in assay [1] (Homo sapiens, MKN-45, […]), the EC50 was 2.08 nM and the Emax turned out to be 98.1%.

B1: BGA7592-1F-ph-L (BGA3676): affinity matured clone of BGA7592-1F, "(SEQ ID NO:95)", "improved affinities to huCEA surface protein" (protein)
chain: DIQMTQSPSSLSASVGDRVTITCRASENQYGYLAWYQQKPGKVPKLLIYNFKNLVEGVPSRFSGSGSGTDFTLTISSLQPEDVATYYCQHHLGTPYTFGQGTKVEIK
modifications: Synthetic: BGA7592-1F-ph-L VL
On to B1, for which the “affinities to huCEA surface protein” value in assay [2] is listed as “improved affinities”. In assay [3], the Ka is 6700 M⁻¹ s⁻¹ and the Rmax turned out to be 184 RU.

B2: BGA7592-1F-ph-M (BGA2433): affinity matured clone of BGA7592-1F, "(SEQ ID NO:96)", "improved affinities to huCEA surface protein"; template for further engineering (protein)
chain: B1 chain with F51T
modifications: Synthetic: BGA7592-1F-ph-M VL
notes: template for further engineering
As for B2, the “affinities to huCEA surface protein” value in assay [2] was “improved affinities”. In addition, the Ka came out at 19700 M⁻¹ s⁻¹ in assay [4] and 2500 M⁻¹ s⁻¹ in assay [3]. For the same molecule, the Rmax is 97.2 RU in assay [4] and 224 RU in assay [3].

B3: BGA7592-1F (BGA5366): "BGA7592-1F (also described herein as BGA5366)"; humanized anti-CEA antibody, parent of the affinity matured clones (antibody, V domains shown)
VH: QVQLVQSGAEVKKPGASVKVSCKASGYIFTSYWLHWVRQAPGQGLEWIGYINPQTGYTSYAQKFQGRVTMTRDTSTSTVYMELSSLRSEDTAVYYCAREYGNYNYPLDYWGQGTLVTVSS
VL: B1 chain with Q29I, F51A, L92Y
As for B3, in assay [3], the Ka was 1900 M⁻¹ s⁻¹ and the Rmax is 367 RU.

B4: L92E: BGA6710 variant in IgG format, L92E in the light chain, "slightly reduces the binding affinity to CEA" (antibody, V domains shown)
VH: B3 VH with W33Y
VL: B1 chain with F51Y, L92E
Take B4: in assay [5], the “Kinetics (huCEA) ka” value was found to be 41700 M⁻¹ s⁻¹ and the “Kinetics (huCEA) kd” value worked out at 0.000188 s⁻¹.
